Test results as given in patent CN115057931A.

Biological target: human LAG-3, full length, on transfected cells (human) (UniProt P18627)
Test: cell-based or functional assay

Chain of UniProt P18627 (P18627 23-525 limits assumed): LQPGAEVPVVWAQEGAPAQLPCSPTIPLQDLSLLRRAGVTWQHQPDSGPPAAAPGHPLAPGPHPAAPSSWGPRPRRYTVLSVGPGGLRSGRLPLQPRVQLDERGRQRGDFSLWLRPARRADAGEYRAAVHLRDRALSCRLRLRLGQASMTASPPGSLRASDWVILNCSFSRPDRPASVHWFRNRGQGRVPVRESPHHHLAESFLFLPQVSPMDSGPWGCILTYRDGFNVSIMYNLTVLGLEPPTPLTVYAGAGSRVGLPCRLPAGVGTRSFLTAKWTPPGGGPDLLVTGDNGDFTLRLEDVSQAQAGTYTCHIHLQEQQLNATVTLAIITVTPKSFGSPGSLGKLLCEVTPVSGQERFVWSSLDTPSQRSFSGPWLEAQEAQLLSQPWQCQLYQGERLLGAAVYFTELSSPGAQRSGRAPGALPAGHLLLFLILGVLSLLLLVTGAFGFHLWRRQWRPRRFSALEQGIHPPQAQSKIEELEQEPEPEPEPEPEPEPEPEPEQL

B1: BMK7 (antibody, from another filing, V domains shown)
VH: QVQLVESGGGVVQPGRSLRLSCVASGFTFSSYGMHWVRQAPGKGLEWVAIIWYDGSNKYYADSVKGRFTISRDNSKNTQYLQMNSLRAEDTAVYYCASVATSGDFDYYGMDVWGQGTTVTVSS
VL: EIVLTQSPATLSLSPGERTTLSCRASQRISTYLAWYQQKPGQAPRLLIYDASKRATGIPARFSGSGSGTGFTLTISSLEPEDFAVYYCQQRSNWPLTFGGGTKVEIK
EC50(nM), IL-2 luciferase reporter in Jurkat cells expressing human LAG-3 with Raji cells and SEE: 2.65 nM
